Patent US20190106494A1 (published 2019)

Target: PD-L1 (soluble; 'PD-L1 ligand' of the Octet assay) (UniProt Q9NZQ7 19-238, limits assumed)
Test: BLI (Octet RED 96), antibody on anti-human IgG capture sensor, PD-L1 in solution, 1:1 fit
Description: Affinity Measurement: The affinity measurement was conducted with Octet RED 96 (ForteBio) instrument at 30 degree Celsius. Briefly, anti-human IgG capture sensor (AHC from ForteBio cat #18-5060) was equilibrated with assay buffer (1× dilution of 10× Kinetics Buffer (ForteBio, Cat #18-5032). Test antibody samples were diluted to 3 ug/mL and allowed to bind to the sensors for 5 min. The sensors were then washed in assay buffer for 3 minutes, and PD-L1 ligand diluted at different concentrations were allowed to bind to the mAb coated on the sensors for 5 minutes. Afterwards, dissociation was followed for 10 minutes in the assay buffer. The sensors could be regenerated by washing in glycine buffer and assay buffer 3 times. The data were fitted with 1:1 binding model using the ForteBio software.

Sequence of PD-L1 (soluble; 'PD-L1 ligand' of the Octet assay) (Q9NZQ7 19-238 limits assumed): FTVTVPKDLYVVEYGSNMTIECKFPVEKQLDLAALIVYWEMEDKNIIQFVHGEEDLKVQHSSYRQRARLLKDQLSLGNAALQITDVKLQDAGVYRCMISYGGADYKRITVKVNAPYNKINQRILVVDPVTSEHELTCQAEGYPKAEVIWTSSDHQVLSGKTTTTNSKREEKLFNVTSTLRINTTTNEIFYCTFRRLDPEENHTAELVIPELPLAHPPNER

B1: 111F1 chimeric anti-PD-L1 antibody (antibody, V domains shown)
VH: CQSVKESEGGLFKPTDTLTLTCTVSGIDLNSIAISWVRQAPGNGLEWIGTIGSSGSAYYASWAKSRSTITRNTSENTVTLEMTSLTAADTATYFCAKEILYYGMDLWGPGTLVTVSS
VL: DPVMTQTPASVSEPVGGTVTINCQASQSISSYLAWYQQKPGQRPKLLIYAASNVEPGVPSRFRGRGSGTQFTLTISDLECDDAATYYCQSTYGSTGGGDYGNAFGGGTKVVVVR
  Kd: 0.162 nM
  koff: 6.2e-05 s⁻¹
  kon: 769000 M⁻¹ s⁻¹
